Measured values published in the DeepSol protein solubility set.

assay: soluble on expression in E. coli; label from the status in PepcDB or PDB records

| Sequence | soluble on expression in E. coli |
| --- | --- |
| VRILVTGGVRSGKSTHAEALLGDAADVVYVAPGRPAAGSDPDWDARVALHRARRPPTWLTVETADVATALSEARSPVLVDCLGTWLTAIMDGEALWSAATADVYAVLEARLDGLCAALTGLPTAIVVTNEVGLGVVPSHSSGVLFRDLLGTINRRVAAVCDEVHLVIAGRVLKL | soluble |
| VRRGQLIDAAREITAQHGVAALTIRGVAEAAGVSLGVVHYHFEDKEELLTEMGQSLILEVSEAMRMAFSQLVGPLKKRGVPGLRELLCAGIRGLWPIIEATPDQQLLTYEITAQALRQRGAGNDSAGLVAARQYRTMDTEAVAFLNLCAHRAGVTWGTPVDQVARFALAVLDGAVLRWLVDRDSDAARTAFDDLVQIIAAKALEGEGSW | not soluble |
| VRRVPLFENMDERLLDAICERLKPCLFTEKSYLVREGDPVNEMLFIIRGRLESVTTDGGRSGFYNRSLLKEGDFCGDELLTWALDPKSGSNLPSSTRTVKALTEVEAFALIADELKFVASQFRR | soluble |
| VRSMGFLHRACRAPSSLPAPLMARPGRSVLARPAATPPGPLCATTRPRPPQGNQPPASRISNFPPKRHKTRVLAAAEDEVSAAVAALISAHGRRHHSLNNQAAAFHGQFAQNLNVGAGSCASAETTADAPTQALLGPADRQRRQRRAVRQWLVRWAAHPGRATRGFHNHRQ | not soluble |
| VRSTPPASAGRSTPPALAGHSTPPALAGHSTLCGRPVAGDRALIMAIVNRTPDSFYDKGATFSDAAARDAVHRAVADGADVIDVGGVKAGPGERVDVDTEITRLVPFIEWLRGAYPDQLISVDTWRAQVAKAACAAGADLINDTWGGVDPAMPEVAAEFGAGLVCAHTGGALPRTRPFRVSYGTTTRGVVDAVISQVTAAAERAVAAGVAREKVLIDPAHDFGKNTFHGLLLLRHVADLVMTGWPVLMALSNKDVVGETLGVDLTERLEGTLAATALAAAAGARMFRVHEVAATRRVLEMVASIQGVRPPTRTVRGLA | soluble |
| VSFNANEVTHVDTPQEALAASLNKFGEVNLEYMENLSETGRQELLTQLENRIFYNPMMKNYEIKDRFIAGNVVAKVEWIENYLKDYPDDDASKKSLEALQKAIPEPISFELLDFNLGERWIPVSVYEEFAGYLFEAKAHIHYTESIDEFSVSFEETNANITDRYYVKGEKRGYYGNDLLKHALHNTVPDITKTVQDEEGNDIKVRDAEAIQLADAKINEIRSAFTGWLNEQLPEFKQHLADMYNRKFNCYVRPDYDGSLQSF | soluble |
| VTDMNPDIEKDQTSDEVTVETTSVFRADFLSELDAPAQAGTESAVSGVEGLPPGSALLVVKRGPNAGSRFLLDQAITSAGRHPDSDIFLDDVTVSRRHAEFRLENNEFNVVDVGSLNGTYVNREPVDSAVLANGDEVQIGKFRLVFLTGPKQGEDDGSTGGP | soluble |
| VTKIVSHRGANRFAPENTFAAADLALQQGADYIELDVRESADGVLYVIHDETLDRTTNGTGPVGHMLSSEIDTLDAGGWFDDRFKGAIVPRLDAYLEHLRGRAGVYIELKYCDPAKVAALVRHLGMVRDTFYFSFSEEMRQGLQSIAPEFRRMMTLDIAKSPSLVGAVHHASIIEITPAQMRRPGIIEASRKAGLEIMVYYGGDDMAVHREIATSDVDYINLDRPDLFAAVRSGMAELLLASNSSSTC | soluble |
| VTMKEASAREIDEVVITGTGAQKKLTVTGAITNVDVDVLKANPSGSMANALAGNVPGILAMQTSGKPGSVSEFWIRGISTFGASNSALVLVDGFERSLDEINVEDVESFSVLKDASATAIYGSKGANGVVLITTKHGKAGK | not soluble |
| VTNWWSGDKRYQRFIERLLSVFEGRVLELPAESHGNVAVMAFQSSPKEQNIDKLKKRADKLSNAYGLDFHRMLAGLKASNPNNGKHFHL | not soluble |
| VTPVTTFPLVDAILAGRDRNLDGVILIAAQHLLQTTHAMLRSLFRVGLDPRNVAVIGKCYSTHPGVVDAMRADGIYVDDCSDAYAPHESFDTQYTRHVERFFAESWARLTAGRTARVVLLDDGGSLLAVAGAMLDASADVIGIEQTSAGYAKIVGCALGFPVINIARSSAKLLYESPIIAARVTQTAFERTAGIDSSAAILITGAGAIGTALADVLRPLHDRVDVYDTRSGCMTPIDLPNAIGGYDVIIGATGATSVPASMHELLRPGVLLMSASSSDREFDAVALRRRTTPNPDCHADLRVADGSVDATLLNSGFPVNFDGSPMCGDASMALTMALLAAAVLYASVAVADEMSSDHPHLGLIDQGDIVASFLNIDVPLQALSRLPLLSIDGYRRLQVRSGYTLFRQGERADHFFVIESGELEALVDGKVILRLGAGDHFGEACLLGGMRRIATVRACEPSVLWELDGKAFGDALHGDAAMREIAYGVARTRLMHAGASESLMV | not soluble |
| VWRTREAVVACIDADPHAEHVLRSAHRLAQQLDCEWHAITIEAPRVAPLPRAGRARLDQALALAETLGAHVETVAGTDMVDAATRYMRRHNITKAVVGRDAWRRRGLSGLL | not soluble |
| WGYECIGMFRSYQEINEYFDKYSITKYLGNTKENVHPGMLIYKDVRGQYDESTGTFGPADGIVDEQDYIKISHRASNPYGGTLNFGFSYKDFSISAQFGASWGAYSLVPTTMRKESYSEYSNVSAMWKDMFVYEDIYDANNIVTVAQNRNAKYPNIRYSSVNGAPSTFWKVSAATVQLRNMTVAYALPKEWLKIIGISSCRFNLTCQNVFNFLNPYPEGAWASWAGSYGYYPNLRKFTLGVNVSF | not soluble |
| WPALDDETLLARLELWLEPYLAGVTSVKGLQSVSVLQALKHYLGWELSQQLDEWLPTHHLLPTGNHKKIRYQLGMEPTLSVRMQEVFGEQSSPRVAKGTRAVVMELLSPAQRPLQVTRDLASFWAGAYKEVQKEMKGRYPKHVWPDDP | not soluble |
| YCKTIPMPDLAYSEISVIGKLIRALPEPCALHLANSSTVRYAQLFTVPPQVEICCNRGVNGIEGSLSTAIGYAAASSKLNFIIIGDLSFFYDMNALWNQNYGANIRILLLNNEGGEIFHTLPGMDKSSRSREFITAEHYTTAKGWAEERGFIYMKVTGEEELEEAMQPFTSPETRMQPMLLEVFTDKEKDTTLLREYYHGLKNKNE | not soluble |
| YDTAYGGFGRGMKFPMHHALLLLARASMAGDRRALNMLTGTLDHMLFSGVHDLVEGGLHRYSVTRDWRLPHYEKMLYDQAWIIQVLAEAYAASGDRLYLDFAVSTLEFAMSWLWTGRGFASSVDADTGEGEGAYYT | not soluble |
| YESIDLKAVLFDMDGVLFDSMPNHAESWHKIMKRFGFGLSREEAYMHEGRTGASTINIVSRRERGHDATEEEIKAIYQAKTEEFNKCPKAERMPGALEVLTKIKSEGLTPMVVTGSGQTSLLDRLNHNFPGIFQANLMVTAFDVKYGKPNPEPYLMALKKGGFKPNEALVIENAPLGVQAGVAAGIFTIAVNTGPLHDNVLLNEGANLLFHSMPDFNKNWETLQSALKQ | not soluble |
| YIGLVNSFAQKKKLSVNYEQCEPNSELPQRFICKCKIGQTMYGTGSGVTKQEAKQLAAKEAYQKLLKSPPKTAGT | soluble |
| YPDDLVIGNLSRRGFLKGVGATGVLLVAANWGWRDALAAEKKAFGADAMPHGWVDNPKIYVSIDRDGTVGIVCNRSEMGQGVRTSLAMVVADELEADWSRVKVIQAPGDEARYGNQDTDGSRSMRHWFEPMRRCGAAARQMLEQAAANQWKVPLGECRAEQNKVLHAPSGRSLSFGELAEAAAGLEVPARDKLLLKKPEQFRYIGKDVARAIDGADIVNGRAGFGFDARFDDMLYAVVARPPVYGGKLKRYDAAAALKVPGVVKVIEIEGRPIPSEFQPLGGVAVVAQNTWAAIKGREALVVEWDAGVNGGYDSVAYRKQLEEAARKPGKVVRDSGDAAALFAKGGDIVEAEYYLPHLAQAPMEPPVSTAWYKDGACEVWAPTQAPQVTRERIAERLKLPFDKVTVNVTLLGGGFGRKSKPDFVLEAAILAKAFPGRHLRVQWTREDDLHFSYFHTVSVERLQAVLGADGLPQAWLHRSVAPSITALFGPDSKHQGAFELGMGLTNLPFAIPNVRLENPEAPAHTRVGWFRSVSNIPHAFAIQSFVGELAAKAGQDPKDYLLKLLGPARRIDTAELGDSWNYGESPERYPLDVGRLRGVIEEAARQSGWGGELPRGRARGIAAHYSFVTYVAVVIEVEVKDDGALLVHKATIAADCGPQINPERIRSQLEGACVMGLGLAALGEISFKDGKVQQDNFHQYELARMPLAPKAVSVHLLKPDGDLPLGGVGEPGVPPIAPALCNAIFAATGKRIRELPI | not soluble |
| YQQDQVVKEDNIEAVGKKLHKYNTQFQEKSREYDRLYEEYTRTSQEIQMKRTAIEAFNETIKIFEEQCQTQERYSKEYIEKFKREGNEKEIQRIMHNYDKLKSRISEIIDSRRRLEEDLKKQAAEYREIDKRMNSIKPDLIQLRKTRDQYLMWLTQKGVRQKKLNEWLGN | soluble |
| YTEEELRVLLAESYKSGEIRKSELKYMNNIFTFDKRMAKEIMVPRNEMVSLSLDEDSISNLQETVKQTKYTRYPVVREDKDNVIGVINMKEVLFSMLTKDFSIKKHQIEPFVQPVIHVIETIPIYKLLLKMQKERTHMAILIDEYGGTSGLVTVEDIIEEIVGEIRDEFDADEVPHIRELGKDHYLLNAKLLISDVNSLLGTDLSE | soluble |
| YYPKIAEEVYLATLDNGMSLSIIKKKGFIEKAAFLSTNFGALDNRFYIDGKLQTYPAGIAHFLEHKLFEDDQGRDVTLDFVKLGADVNAFTTLDRTTYYFSTIDHFEESLELLLKFTSEFTSSEDTVNHEKRIIEQEINMYQDDPDYRVYLGCLQSLYPNTILGQDIAGSIDSIKKITTKDLKNNFDYFYRPENCHLVLIGNFDIEQIYRFVKETRSEFTISHKTVEK | not soluble |
